Here are results for one sequence from paper PMC6018088.

Series [1] addresses T1, HapR (Vibrio cholerae O1 El Tor C7258?) (UniProt Q4F6W7).
T1 sequence: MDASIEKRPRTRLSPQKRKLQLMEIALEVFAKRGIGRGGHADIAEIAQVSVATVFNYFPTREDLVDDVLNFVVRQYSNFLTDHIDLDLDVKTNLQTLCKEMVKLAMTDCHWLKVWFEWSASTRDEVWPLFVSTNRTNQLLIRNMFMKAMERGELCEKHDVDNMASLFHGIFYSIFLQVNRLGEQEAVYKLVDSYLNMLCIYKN
The experiment in a line: DNase I footprinting. The following applies: […]; buffer, pH and temperature not given ([…].

Series [2] concerns the target T2, Fur (Vibrio cholerae O1 El Tor C7258?) (UniProt P0C6C8).
T2 sequence: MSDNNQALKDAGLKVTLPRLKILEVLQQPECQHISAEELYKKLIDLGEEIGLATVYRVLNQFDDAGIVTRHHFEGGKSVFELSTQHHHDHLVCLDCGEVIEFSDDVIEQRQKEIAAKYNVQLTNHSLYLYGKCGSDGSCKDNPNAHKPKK
Nature of the series: DNase I footprinting. The following applies: DNase I footprinting with FAM/HEX-labeled probes and RQ1 DNase I; buffer, salt, pH and temperature not given (cites earlier work).

In the case of “GTAAAACGACGGCCAGTCTTATGTGTAAGCGTATTGAAATCTTTAGAGTTAAAATGGAGAACTTAACTTTTTTTAAATTATTCAATTAATCTTTAAATCAACCTTATAAATTAATTCAGACTAAATTAGTTCAAATTAAATTAGGCTCATTAAATAATATGAATATCAGTAATTGTTATTTTAGGAAGAAATTATTTTACAGCAAATAAAAAGTCTTTAGAGGCTAAAATCTGTGATCCGGTCATAGCTGTTTCCTG (double strand) [hlyA promoter fragment]”, the binding result in series [1] and in series [2] was “binds” throughout.
